Several values for one entry are separate records, joined by “and”; a condition that tells them apart may be missing. Equal values may be shown once.

The target of test [1] is T1, human IL-15 complexed with the IL-15 Receptor-alpha (human, UniProt P40933 49-162).
T1 construct: Co-expressed in HEK293F from plasmids in a 1:1 ratio; also called IL-15/IL-15Rα complex
The test is described as follows: SPR, antibody captured on Protein A chip, IL-15 complex as analyte. How it is done:
Binding of Antibody 70 variants to human IL-15 complexed with the IL-15 Receptor-alpha were assessed using surface plasmon resonance on a BIACORE® T200 (GE Healthcare) system using a Protein A Sensor Chip (GE Healthcare). Antibodies were captured onto the second flow cell to a level of 150-200 RU. Purified cytokines were diluted to 10 μg/mL in HBS-EP+. Binding was measured by injection of […] of each cytokine at a flow rate of […] across both flow cells and allowing 180 s of dissociation time. The chip surface was regenerated between cycles with two 10 sec pulses of 50 mM sodium hydroxide. The running buffer used was HBS-EP+ (GE Healthcare) and all interactions were measured at 25° C. and data collection rate set to 10 Hz.
A summary of the surface plasmon resonance data is shown on FIG. 36. The affinity can be measured by the KD (the equilibrium dissociation constant between the antibody and its antigen). […] The large difference in KD between variants of Antibody 70 and AMG714 is driven by the dissociation rate (kd). IL-15 dissociates from AMG714 ten times faster than the rate of dissociation of IL-15 from Antibody 70 variants. […] This was tested in a cell based potency assay.
Target sequence in this assay (P40933 49-162 limits assumed, one chain of several): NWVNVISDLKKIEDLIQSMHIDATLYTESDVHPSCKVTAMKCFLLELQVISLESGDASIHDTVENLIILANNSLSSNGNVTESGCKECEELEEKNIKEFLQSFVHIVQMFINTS

Test [2] has as its target T1, human IL-15 complexed with the IL-15 …. Briefly: cell-based or functional assay.
Target sequence in this assay (P40933 49-162 limits assumed, chain 1 of 2, one chain of several): as the sequence (P40933 49-162 limits assumed, one chain of several) above
Test [3] shares this target. Briefly: SPR, run 6. A general note: SPR reads the build-up and loss of mass on a sensor chip optically.
Target sequence in this assay (P40933 49-162 limits assumed, one chain of several): as above
Test [4] shares this target. The test is described as follows: SPR, run 4.
Target sequence in this assay (P40933 49-162 limits assumed, one chain of several): as above
The target is the same in test [5]. Briefly: SPR.
Target sequence in this assay (P40933 49-162 limits assumed, one chain of several): as above
Test [6] has the same target. The test is described as follows: SPR, run 5.
Target sequence in this assay (P40933 49-162 limits assumed, one chain of several): as above
Test [7] has the same target. The test is described as follows: cell-based or functional assay. The source holds these as a separate data set.
Target sequence in this assay (P40933 49-162 limits assumed, one chain of several): as above
Test [8] deals with T2, uncomplexed IL-15 Receptor α (human).
T2 construct: also called IL-15Rα; IL15Rα
T2 chain: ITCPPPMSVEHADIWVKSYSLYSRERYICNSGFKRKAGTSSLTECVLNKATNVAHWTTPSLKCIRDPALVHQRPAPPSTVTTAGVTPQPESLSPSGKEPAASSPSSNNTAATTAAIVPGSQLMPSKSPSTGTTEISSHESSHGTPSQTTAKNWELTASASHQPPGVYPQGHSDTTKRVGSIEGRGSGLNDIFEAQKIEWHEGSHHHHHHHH
The test is described as follows: ELISA and cELISA, hybridoma supernatant. As to the method:
Microtiter plates were coated with purified IL-15 or purified IL-15Rα or purified IL-15 complex. Briefly, microtiter plates were coated with purified protein in PBS and then blocked with irrelevant proteins such as bovine serum albumin (BSA) diluted in PBS. Dilutions of hybridoma supernatants were added to each well and incubated for 1-2 hours at 37° C. The plates were washed with PBS/TWEEN® 20, and then incubated with a goat-anti-human IgG Fc-specific polyclonal reagent conjugated to a suitable detection reagent […] for 1 hour at 37° C. […] Hybridomas that produced antibodies showing positive reactivity with the IL-15 complex but not with IL-15Rα were selected for further characterization.
cELISA was carried out as follows. HEK cells were transfected with DNA encoding IL-15 and IL-15Rα such that they expressed the IL-15 complex. The transfected HEK cells were coated onto an ELISA plate and dilutions of hybridoma supernatants was applied to the plate so that it could bind to the IL-15 complex expressed on the surface of the cells. The assay was repeated using HEK cells transfected with IL-15Rα such that they expressed uncomplexed IL-15Rα. The advantage of using cELISA in addition to classical ELISA is that a native protein complex is used to screen the antibodies.

In test [9] the target is T1, human IL-15 complexed with the IL-15 …. The test is described as follows: SPR, run 2.

B1: Antibody 4 (antibody, V domains shown, not shown: a dimerising Fc or GST)
VH: QVQLQESGPGLVKPSGTLSLTCAVSGGSISSSNWWSWVRQPPGKGLEWIGEIYHSGNTNYNPSLKSRVTISVDKSKNQFSLKLISVTAADTAVYYCAREGIGWPSFDYWGQGTLVTVSS
VL: SSELTQDPAASVALGQTVRITCQGDTLRNYYASWYQQKPGQAPILVIYGKNNRPSGIPDRFSGSSSGNTASLTITGAQAEDEADYYCNSRDSSGKNLVFGGGTKLTVLG
notes: from section 3.4 on as recombinant human IgG1 lambda; also called parent antibody; parental antibody
For orientation: Kd means the equilibrium constant for the complex coming apart. Low readings indicate higher affinity, high ones lower affinity. One may read the koff as the first-order rate constant of dissociation. The low end stands for a long-lived complex, the high end for a short-lived complex. Usually kon stands for the second-order rate constant of association. Read a low kon as slower complex formation. For the molecule B1, the equilibrium dissociation constant (Kd) in test [1] is 629 pM; in test [3], 1070 pM; in test [4], 1280 pM; in test [5] it was 630 pM and 628 pM; in test [6], 979 pM; in test [9] it was 982 pM. The “IC 50 (NK-92) in pM” value in [2] turned out to be 148 pM. Further, the koff in [3] was 0.00016 s⁻¹; in test [4] it was 0.000182 s⁻¹; in test [5], 9.43e-05 s⁻¹ and 9.31e-05 s⁻¹; in [6] it was 0.000166 s⁻¹; in test [9], 0.000138 s⁻¹. The on-rate constant (kon) was 150000 M⁻¹ s⁻¹ in test [3]; 142000 M⁻¹ s⁻¹ in test [4]; 148000 M⁻¹ s⁻¹ and 150000 M⁻¹ s⁻¹ in test [5]; 170000 M⁻¹ s⁻¹ in test [6]; 141000 M⁻¹ s⁻¹ in [9]. In test [7], the “IC50, NK-92 proliferation assay” value came out at 100 pM. Also, in [8], the binding result is “no binding”.
